Measurements reported in patent publication US20220195067A1 (LAMKAP BIO BETA, published 2022).

How the values were obtained:
[1] = biological target: T1, human CEACAM5 on CEACAM5-expressing cancer cell lines (human, UniProt P06731 35-685); assay: flow cytometry on MKN-45 cells, K2AC100 directly labeled with a fluorochrome, no competitor
T1 construct: whole, on cells; also called CEACAM5 on SK-CO-1, MKN-45, HPAF-II, SNU-C1, Ls174T, LoVo cells
T1 sequence (looked up): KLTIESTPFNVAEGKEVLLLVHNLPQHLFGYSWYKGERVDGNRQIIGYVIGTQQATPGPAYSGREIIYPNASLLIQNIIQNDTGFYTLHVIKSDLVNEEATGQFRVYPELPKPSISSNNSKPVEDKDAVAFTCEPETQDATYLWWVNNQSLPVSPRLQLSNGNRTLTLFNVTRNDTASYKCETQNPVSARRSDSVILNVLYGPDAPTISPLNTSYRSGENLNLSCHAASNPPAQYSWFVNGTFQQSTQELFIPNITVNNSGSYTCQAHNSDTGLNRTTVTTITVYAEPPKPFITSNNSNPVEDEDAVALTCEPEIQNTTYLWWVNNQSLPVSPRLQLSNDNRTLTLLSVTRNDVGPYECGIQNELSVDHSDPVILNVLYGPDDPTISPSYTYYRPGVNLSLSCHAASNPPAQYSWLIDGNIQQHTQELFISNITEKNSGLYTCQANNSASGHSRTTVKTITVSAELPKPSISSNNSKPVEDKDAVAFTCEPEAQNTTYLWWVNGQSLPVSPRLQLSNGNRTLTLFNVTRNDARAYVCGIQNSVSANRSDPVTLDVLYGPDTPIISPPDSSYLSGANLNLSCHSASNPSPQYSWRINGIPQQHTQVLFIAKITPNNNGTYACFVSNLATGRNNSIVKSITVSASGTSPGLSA
Experimental: (§1) A binding assay to cells expressing CEACAM5 was performed as described in Example 6. […] An antibody was regarded as non-competitive if 300 nM of the antibody shifts the binding curve of a bispecific antibody of the invention by less than a factor of 3.
(§2) In this experiment, the concentration-dependent binding of CD47×CEACAM5 bispecific antibody K2AC100 was measured in the presence of an anti-CEACAM5 mAbs, either TCB2014 or TCB 2017. This binding was measured at the cell surface of CEACAM5-expressing MKN-45 cells. K2AC100 was directly labeled with a fluorochrome to follow its binding on MKN-45 cells alone (dark line, dark circles), in presence of 300 nM of TCB2014 (dark line, dark triangles) or 30 nM of TCB2017 (dark line, black diamonds). Negative controls (Ctrl) were used (IgG1 in presence of TCB2014 or TCB2017). […] Therefore, the K2AC100 antibody is non-competitive with the TCB2014 and TCB2017 antibodies with respect to CEACAM5 binding.

[2] = biological target: T1, human CEACAM5 on CEACAM5-expressing …; assay: flow cytometry on MKN-45 cells, K2AC100 directly labeled with a fluorochrome, in presence of 30 nM TCB2017
Experimental: as §1, §2

[3] = biological target: T1, human CEACAM5 on CEACAM5-expressing …; assay: flow cytometry on MKN-45 cells, K2AC100 directly labeled with a fluorochrome, in presence of 300 nM TCB2014
Experimental: as §1, §2

EC50 (read off the curve) [1]: ~2 µg/mL
EC50 (read off the curve) [2]: ~2 µg/mL
EC50 (read off the curve) [3]: ~2 µg/mL
B1: K2AC100 (bispecific antibody, human IgG1, kappa, lambda)
heavy: not shown
light 1: QSVLTQPPSVSAAPGQKVTISCSGSSSNIGYGLVSWYQQLPGTAPKLLIYNGNIRPSGIPDRFSGSKSGTSATLGITGLQTGDEADYYCGTWDFSYRVDFGGGTKLTVLGQPKAAPSVTLFPPSSEELQANKATLVCLISDFYPGAVTVAWKADSSPVKAGVETTTPSKQSNNKYAASSYLSLTPEQWKSHRSYSCQVTHEGSTVEKTVAPTECS
light 2: not shown
notes: Kappa-lambda body; also called CD47xCEACAM5 bispecific antibody K2AC100; AC100 (CEACAM5 arm)
